Assay results from the supplement of paper PMC6379048.
pKd: −log10 of the molar value.

Experiments:
Experiment in all cases: Kd (EC50 corrected by depletion factor)
IFIT5 = biological target: T1, IFIT5 (UniProt Q13325)
T1 sequence: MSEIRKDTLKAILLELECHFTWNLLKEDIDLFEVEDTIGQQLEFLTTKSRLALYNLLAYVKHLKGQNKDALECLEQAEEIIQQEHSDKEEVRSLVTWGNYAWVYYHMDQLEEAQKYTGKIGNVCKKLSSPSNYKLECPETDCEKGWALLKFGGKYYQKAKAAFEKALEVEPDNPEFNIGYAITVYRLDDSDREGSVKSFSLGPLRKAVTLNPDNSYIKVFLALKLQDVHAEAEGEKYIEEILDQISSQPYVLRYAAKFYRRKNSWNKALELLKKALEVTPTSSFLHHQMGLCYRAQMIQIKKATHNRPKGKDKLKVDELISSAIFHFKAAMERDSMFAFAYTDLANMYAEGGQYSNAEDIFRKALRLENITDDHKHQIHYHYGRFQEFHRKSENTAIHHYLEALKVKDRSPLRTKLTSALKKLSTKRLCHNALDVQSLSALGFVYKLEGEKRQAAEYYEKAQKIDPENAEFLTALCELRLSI
In short: (§1)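 Free RNA oligos (0 nM to 30 μM) competed for 1 h at 4°C in HEK293-FT lysate (2.5 mg protein/well) before a 30 min, 4°C pulldown with the same oligos on NHS-Sepharose beads. Bound proteins were quantified by label-free LC-MS/MS and normalised to the control. Kd was found by multiplying EC50, from a four-parameter log-logistic fit, by a protein-dependent depletion factor.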

PABPN1 = biological target: T2, PABPN1 (UniProt Q86U42)
T2 sequence: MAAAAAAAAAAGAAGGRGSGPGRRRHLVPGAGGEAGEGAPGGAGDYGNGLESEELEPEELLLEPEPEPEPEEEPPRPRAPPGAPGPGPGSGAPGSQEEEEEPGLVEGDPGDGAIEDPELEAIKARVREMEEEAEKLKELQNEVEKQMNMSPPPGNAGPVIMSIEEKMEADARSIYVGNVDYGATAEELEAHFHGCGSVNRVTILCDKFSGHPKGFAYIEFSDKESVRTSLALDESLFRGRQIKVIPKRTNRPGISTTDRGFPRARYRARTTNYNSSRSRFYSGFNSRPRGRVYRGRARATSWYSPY
In short: as §1

RBM14 = biological target: T3, RBM14 (UniProt Q96PK6)
T3 sequence: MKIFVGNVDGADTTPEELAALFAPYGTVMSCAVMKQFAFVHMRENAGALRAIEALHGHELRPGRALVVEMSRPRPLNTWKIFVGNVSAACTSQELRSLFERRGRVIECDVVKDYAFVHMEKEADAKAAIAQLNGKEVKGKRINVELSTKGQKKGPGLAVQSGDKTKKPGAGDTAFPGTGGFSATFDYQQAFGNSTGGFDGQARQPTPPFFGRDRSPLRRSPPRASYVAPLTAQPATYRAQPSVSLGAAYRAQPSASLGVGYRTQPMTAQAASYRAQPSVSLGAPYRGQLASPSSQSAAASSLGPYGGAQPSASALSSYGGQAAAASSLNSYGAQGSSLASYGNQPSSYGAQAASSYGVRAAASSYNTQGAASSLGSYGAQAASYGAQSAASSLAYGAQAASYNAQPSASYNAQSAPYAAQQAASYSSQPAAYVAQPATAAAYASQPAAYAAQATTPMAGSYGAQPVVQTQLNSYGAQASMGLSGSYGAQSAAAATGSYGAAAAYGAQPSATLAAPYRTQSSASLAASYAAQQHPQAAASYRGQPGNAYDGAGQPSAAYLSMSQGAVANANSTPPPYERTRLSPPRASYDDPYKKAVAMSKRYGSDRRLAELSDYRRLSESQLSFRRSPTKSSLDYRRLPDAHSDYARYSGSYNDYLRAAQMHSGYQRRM
In short: as §1

RPS28 = RPS28 (UniProt P62857)
In short: as §1

MRPL14 = MRPL14 (UniProt Q6P1L8)
In short: as §1

MRPL19 = MRPL19 (UniProt P49406)
In short: as §1

CSTF3 = biological target: T4, CSTF3 (UniProt Q12996)
T4 sequence: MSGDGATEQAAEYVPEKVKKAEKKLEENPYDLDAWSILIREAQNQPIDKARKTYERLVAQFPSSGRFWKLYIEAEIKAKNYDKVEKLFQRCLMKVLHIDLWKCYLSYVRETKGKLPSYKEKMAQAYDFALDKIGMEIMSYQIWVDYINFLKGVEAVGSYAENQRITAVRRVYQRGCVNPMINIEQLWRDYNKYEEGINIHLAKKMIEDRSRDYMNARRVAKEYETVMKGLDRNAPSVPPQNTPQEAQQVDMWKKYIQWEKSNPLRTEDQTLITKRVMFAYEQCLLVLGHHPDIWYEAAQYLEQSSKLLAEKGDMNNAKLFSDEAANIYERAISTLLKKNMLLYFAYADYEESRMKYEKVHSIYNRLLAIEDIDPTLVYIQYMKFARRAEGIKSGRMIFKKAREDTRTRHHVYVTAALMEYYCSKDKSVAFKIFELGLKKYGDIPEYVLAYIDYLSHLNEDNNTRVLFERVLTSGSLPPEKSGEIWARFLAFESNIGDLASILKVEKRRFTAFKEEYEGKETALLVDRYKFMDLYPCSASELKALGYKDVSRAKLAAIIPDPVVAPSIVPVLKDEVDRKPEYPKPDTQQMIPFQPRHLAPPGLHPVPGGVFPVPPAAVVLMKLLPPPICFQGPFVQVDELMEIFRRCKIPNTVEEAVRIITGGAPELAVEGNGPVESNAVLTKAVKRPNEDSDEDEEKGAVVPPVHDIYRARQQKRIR
In short: as §1

RBM38 = biological target: T5, RBM38 (UniProt Q9H0Z9)
T5 sequence: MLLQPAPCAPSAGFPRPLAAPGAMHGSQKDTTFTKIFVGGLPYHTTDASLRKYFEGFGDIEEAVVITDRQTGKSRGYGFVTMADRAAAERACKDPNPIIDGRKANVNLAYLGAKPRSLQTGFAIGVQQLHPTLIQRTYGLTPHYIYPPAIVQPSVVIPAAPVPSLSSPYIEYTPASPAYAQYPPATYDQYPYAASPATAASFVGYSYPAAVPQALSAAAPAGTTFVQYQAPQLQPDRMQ
In short: as §1

AAUAAA gave a pKd (IFIT5) of 6.44, a pKd (PABPN1) of 6.43 and a pKd (RBM14) of 6.22.
With CUGUCCU the pKd (RPS28) was 6.94, the pKd (MRPL14) was 7.27 and the pKd (MRPL19) was 7.27.
UAUUUAU gave a pKd (CSTF3) of 6.45 and a pKd (RBM38) of 5.90.
